Measured values taken from the nanobody polyreactivity screen of Harvey et al. (2022).

Experiment: yeast display, Sf9 membrane polyspecificity reagent, FACS + sequencing; frameworks hold sequencing errors
Outline: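 In a synthetic yeast display library (Saccharomyces cerevisiae BJ5465), nanobody expression was induced with galactose for 36–48 hours. FACS gates were set low and high (top ~1%) using anti-HA fluorescence for expression and streptavidin fluorescence for binding of the Sf9 membrane reagent. Each polyreactivity label is drawn from the gate of origin.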
With “QVQLVESGGGLVQAGGSLRLSCAASGRTFTYYAMGWYRRAPGKERELVAAIRWTGDSTYYADSVKGRFTISRDNAKNTVYLQMNSLKPEHTAVYYCATQARWQYDGGIRWYYYWGQGTQVTVSS” the “polyreactivity (PSR sort gate)” value was “high polyreactivity”.
For “QVQLVESGGGLVQAGGSLRLSCAASGRTFTYYTMGWYRQAPGKERELVAAITWSGGRTYYADSVKGRFTISRDNAKNTVYLQMNSLKPEDTAVYYCAKPPQGTYDYWGQGTQVTVSS”, the “polyreactivity (PSR sort gate)” value was “low polyreactivity”.
With “QVQLVESGGGLVQAGGSLRLSCAASGRTFVANGMGGYRQAPGKERELVAAINYGDDTYYADSVKGRFTISRDNAKNTVYLQMNSQKPEDTAFYFLAADIIYGYEVYTYTSDYWGQGTQVTVSS” the “polyreactivity (PSR sort gate)” value was “low polyreactivity”.
In the case of “QVQLVESGGGLVQAGGSLRLSCAASGRTFVDYDMGWYRQAPGKERELVADINSGGSTYYADSVKGRFTISRDNAKNTVYLQMNSQKPEDTAVYDCAVRSRGTAPQYYYWGQGTQVTVSS”, the “polyreactivity (PSR sort gate)” value was “high polyreactivity”.
In the case of “QVQLVESGGGLVQAGGSLRLSCAASGRTFVENAMGWYRQAPGKERELVAAITYRGGRTFYADSVKGRFTISRDNAKNTVYLQMNSLKPEDTAVYYCNAVRRTGGHGDYWGQGTQVTVSS”, the “polyreactivity (PSR sort gate)” value was “high polyreactivity”.
In the case of “QVQLVESGGGLVQAGGSLRLSCAASGRTFVEYAMGWYRPAPGKERELVAAITWDGGSTYYADSVKGRFTISRDNAKYTVYLQMNSLKPEDTAVYYCNADYRQITSYGFDYWGQGTQVTVSS”, the “polyreactivity (PSR sort gate)” value was “low polyreactivity”.
In the case of “QVQLVESGGGLVQAGGSLRLSCAASGRTFVFYAMGWYRQAPGKESEFVARITWSGGRTFYADSVKGRFTISRDNAKNTVYLQMNSLKPEDTAVYYCAARGHDAVIATRYDYWGQGTQVTVSS”, the “polyreactivity (PSR sort gate)” value was “high polyreactivity”.
In the case of “QVQLVESGGGLVQAGGSLRLSCAASGRTFVFYTMGWYRQAPGKERELVAAINSRGGRTYYADSVKGRFTISRDNAKNPVYLQMNSLKPEDTAVYYCNAAFYVTDHDYWGKGTQVTVSS”, the “polyreactivity (PSR sort gate)” value was “high polyreactivity”.
For “QVQLVESGGGLVQAGGSLRLSCAASGRTFVGNAIGWYRQATGKERELVAAINGSGGSTYYEDSVKGRFTISRDNAKNTVYLQMNSLKPEDPAVYYCNARPGVYVVIYDYWGQGTQVTVSS”, the “polyreactivity (PSR sort gate)” value was “low polyreactivity”.
In the case of “QVQLVESGGGLVQAGGSLRLSCAASGRTFVGYAMGWYRQAPGKERELVAAISGGGRTNYADSVKGRFTISRDNAKNTVYLQMISLKPEDTAVYYFAARLVKYFRPYDYWGQGTQVTVSS”, the “polyreactivity (PSR sort gate)” value was “high polyreactivity”.
In the case of “QVQLVESGGGLVQAGGSLRLSCAASGRTFVGYAMGWYRQAPGKERELVAAITSGGSTYYADSVKGRFTISRDNAKNTVYLQMNSLKPEDTAVYYCATALYDWYSLEFDYWGQGTQVTVSS”, the “polyreactivity (PSR sort gate)” value was “low polyreactivity”.
With “QVQLVESGGGLVQAGGSLRLSCAASGRTFVGYAMGWYRQAPGKERELVAAMSASGTSTYYADSVKGRFTISRDNAKNTVYLQMNSLKPEDTAVYYCAKAKDLPPRYGSWGQGTQVTVSS” the “polyreactivity (PSR sort gate)” value was “high polyreactivity”.
In the case of “QVQLVESGGGLVQAGGSLRLSCAASGRTFVIYAMGWYRQAPGKASELVAGIDSGTSTYADSVKGRFTISRDNAKNTVYLQMNSLKPEDTAVYYCAADFAPDGSGWYIPGDYDSWGQGTQVTVSS”, the “polyreactivity (PSR sort gate)” value was “low polyreactivity”.
For “QVQLVESGGGLVQAGGSLRLSCAASGRTFVLNAMGWYRQAPGKERELVAAITLGGGSTYADSVKGRFTISRDNAKNTVYLQMNSLKPEDTAVYYCAADFHYPDFEYWGQGTQVTVSS”, the “polyreactivity (PSR sort gate)” value was “low polyreactivity”.
With “QVQLVESGGGLVQAGGSLRLSCAASGRTFVPNAMGWYRQAPGKERELVAAISWSGDSTYYADSVKGRFTISRDNAKNTVYLQMNSLKPEDTAVYYCAADPFFGVSIGGLKYHFDYWGQGTQVTVSS” the “polyreactivity (PSR sort gate)” value was “low polyreactivity”.
In the case of “QVQLVESGGGLVQAGGSLRLSCAASGRTFVPNAMGWYRQAPGKERELVARISSGDSTYYADSVKGRFTISRDNAKNTVYLQMNSLKPEDTAVYYCAASGRQNGYGRRQYYYWGQGTQVTVSS”, the “polyreactivity (PSR sort gate)” value was “high polyreactivity”.
With “QVQLVESGGGLVQAGGSLRLSCAASGRTFVPYAMGWYRQAPGKERELVAAISARGSSTYYADSVKGRFTISRDNAKNTVYLQMNSLKPEDTAVYYCNAVGARVASATGMEYWGQGTQVTVSS” the “polyreactivity (PSR sort gate)” value was “high polyreactivity”.
In the case of “QVQLVESGGGLVQAGGSLRLSCAASGRTFVPYAMGWYRQAPGKERELVAAISSGGDTNYADSVKGRFTISRDNAKNTVYLQMNSLKPEDSAVYYCAKDLTQIYYGDDYWGQGTQVTVSS”, the “polyreactivity (PSR sort gate)” value was “low polyreactivity”.
With “QVQLVESGGGLVQAGGSLRLSCAASGRTFVRNAMGWYRQAPGKERELVAAISGSAGRTYYADSVKGRFTISRDNAKNTVYLQMNSLKPEDTAVYYCAKDTTVYGYYYWGQGTQVTVSS” the “polyreactivity (PSR sort gate)” value was “high polyreactivity”.
In the case of “QVQLVESGGGLVQAGGSLRLSCAASGRTFVRYAMGWYRQAPGKERELVAAISQSGGDTYYADSVKGRFTISRDNAKNTVYLQMNSLKPEDTPVYYCAARSDDVSRYGYWGQGTQVTVSS”, the “polyreactivity (PSR sort gate)” value was “low polyreactivity”.
In the case of “QVQLVESGGGLVQAGGSLRLSCAASGRTFVRYAMGWYRQAPGKERELVAAISRTGGTTYYADSVKGRFTISRDNAKNTVYLQMNSLKPVDTAVYYCNADPFYKYGYWGQGTQVTVSS”, the “polyreactivity (PSR sort gate)” value was “high polyreactivity”.
With “QVQLVESGGGLVQAGGSLRLSCAASGRTFVRYAMGWYRQAPGKERELVAAISWSGGSTYYADSVKGRFTISRDNAKNTVYLQKNSLKPEDTAVYYCAAVDETPSSHEEDYWGQGTQVTVSS” the “polyreactivity (PSR sort gate)” value was “high polyreactivity”.
In the case of “QVQLVESGGGLVQAGGSLRLSCAASGRTFVRYAMGWYRQAPGKERELVARITSRGTSTYYADSVKGRFTISRDNAKNTVYLQMNSLKPEDTAFYYCNKVRTFRDKSRYDYWGQGTQVTVSS”, the “polyreactivity (PSR sort gate)” value was “low polyreactivity”.
With “QVQLVESGGGLVQAGGSLRLSCAASGRTFVRYTMGWYRQAPGKERELVAAISGSGSSTFYADSVKGRFTISRDNAKNTVYLQMNSLKPVDTAVYYCAARVRRVARDPYDYWGQGTQVTVSS” the “polyreactivity (PSR sort gate)” value was “high polyreactivity”.
In the case of “QVQLVESGGGLVQAGGSLRLSCAASGRTFVSNALGWYRQAPGKERELVAAISSSGGSTYYADSVKGRFTISRDNAKNTVYLQMNSLKPEDPAVYYGATYPLYSKYRYDHWGQGTQVTVSS”, the “polyreactivity (PSR sort gate)” value was “high polyreactivity”.
In the case of “QVQLVESGGGLVQAGGSLRLSCAASGRTFVSNAMGWYRQAPGKERELVAAISVRGGRTYYADSVKGRFTISRDNAKNTVYLQMNSLKPEDTAVYYCNAVYRTYEYYWGQGTQVTVSS”, the “polyreactivity (PSR sort gate)” value was “high polyreactivity”.
For “QVQLVESGGGLVQAGGSLRLSCAASGRTFVSNAMGWYRQAPGKERELVAVITGIGGNTYYADSVKGRFTISRDNAKTTVYLQMYSLKPEDTAVYYCAADQIYSFYPVYGSWIYSMYYWGQGTQVTVSS”, the “polyreactivity (PSR sort gate)” value was “low polyreactivity”.
With “QVQLVESGGGLVQAGGSLRLSCAASGRTFVSYAMGWYRQAPGKERELVAAINGNGASTRYADSVKGRFTISRDNAKNTVYLQMNSLKPEDTAVYYCNTGRRFYGYNYWGQGTQVTVSS” the “polyreactivity (PSR sort gate)” value was “high polyreactivity”.
For “QVQLVESGGGLVQAGGSLRLSCAASGRTFVTYAKGWYRQAPGKERELVAAISASGGSTYYADSVKGRFTISRDNAKNTVYLQMNSLNPEDTAVYYCAKTYFLATPYGYWGQGTQVTVSS”, the “polyreactivity (PSR sort gate)” value was “low polyreactivity”.
With “QVQLVESGGGLVQAGGSLRLSCAASGRTFVTYAMGWYRQAPGKERELVAAISASGGSTYYADSVKGRFTISRDNAKNTVYLQMNSLKPEDTAVYYCAKTYFLATPYGYWGQGTQVTVSS” the “polyreactivity (PSR sort gate)” value was “low polyreactivity”.
For “QVQLVESGGGLVQAGGSLRLSCAASGRTFVVYAMGWYRQAPGKERELVAAISRGGSRTYYADSVKGRFTISRDNAKNTVYLQMNSLKPEDTAVYYCAKVIPAYPDSDYNYWGQGTQVTVSS”, the “polyreactivity (PSR sort gate)” value was “high polyreactivity”.
For “QVQLVESGGGLVQAGGSLRLSCAASGRTFVWNVMGWYRQAPGKEREFVAAISGGSTYYADSVKGRFTISRDNAKNTVYLKMNSLKQEDTPVYYCAAASKLHPRYEYWGQGTQVTVSS”, the “polyreactivity (PSR sort gate)” value was “low polyreactivity”.
In the case of “QVQLVESGGGLVQAGGSLRLSCAASGRTFVWNVMGWYRQAPGKEREFVAAISGGSTYYADSVKGRFTISRDNAMNTVYLEMNSLKPEDTAVYYCADASKLHPRYEYWGQGTQVTVSS”, the “polyreactivity (PSR sort gate)” value was “low polyreactivity”.
For “QVQLVESGGGLVQAGGSLRLSCAASGRTFVYNAMGWYRQAPGKERELVAAIDGGGDRTYYADSVKGRFTISRDNAKNTVYLQMNSLKQEDTAVYFCARDPGDTYYYSYPEGDYWGQGTQVTVSS”, the “polyreactivity (PSR sort gate)” value was “low polyreactivity”.
With “QVQLVESGGGLVQAGGSLRLSCAASGRTFVYNAMGWYRQAPGKERELVAAISFGGGNTYYADSVKGRFTISRDNAKNTVYLQMNSLKPEYTAVYYCAARAGAGPLDYDYWGQGTQVTVSS” the “polyreactivity (PSR sort gate)” value was “low polyreactivity”.
In the case of “QVQLVESGGGLVQAGGSLRLSCAASGRTFVYNAMGWYRQAPGKERELVAAISSSGGSTRYADSVKGRFTISRDNAKNTVYLQMNSLKPEDTAVYYCNRLRYSNRYDSWGQGTQVTVSS”, the “polyreactivity (PSR sort gate)” value was “high polyreactivity”.
For “QVQLVESGGGLVQAGGSLRLSCAASGRTFVYNAMGWYRQAPGKERELVAAITRSGGRTYYADSVKGRFTISRDNAKNTVYLQMNSLKPEDTAVYYCSARISRWYAYGTDIKEGDYWGQGTQVTVSS”, the “polyreactivity (PSR sort gate)” value was “low polyreactivity”.
In the case of “QVQLVESGGGLVQAGGSLRLSCAASGRTFVYNAMGWYRQAPGKERELVAGITNGGSTNYADSVKGRFTISRDNAKNTVYLQMNSLKPEDTAVYYCAADSRVYPYYFGDFGYWGQGTQVTVSS”, the “polyreactivity (PSR sort gate)” value was “low polyreactivity”.
For “QVQLVESGGGLVQAGGSLRLSCAASGRTFVYNAMGWYRQAPGKERELVATIRSSGGSTYYADSVKGRFTISRDNAKNTVYLQMNSLKPEDTAVYYCAARWRPYGKFYYWGQGTQVTVSS”, the “polyreactivity (PSR sort gate)” value was “high polyreactivity”.
In the case of “QVQLVESGGGLVQAGGSLRLSCAASGRTFVYNAMGWYRQAPGKERQLVAGITNGGSTNYADSVKGRFTISRDNAKNTVYLQMNSLKPEDTAVYYCAADSRVYPYYFGHFGFWGQGTQVTVSS”, the “polyreactivity (PSR sort gate)” value was “low polyreactivity”.
In the case of “QVQLVESGGGLVQAGGSLRLSCAASGRTFVYNAMGWYRQARGKEREFVAAISSGGGTNYADSVKGRFTISRDNAKNTVYLQMNSLQPEDTAVYYCAAGSVSIFRGYRDYYNPKEYDYCGQGTQVTVSS”, the “polyreactivity (PSR sort gate)” value was “low polyreactivity”.
